In this test the target is Mac2 (SUD-N, macrodomain II) of SARS-CoV Nsp3, purified (SARS-CoV (strain Frankfurt)). Briefly: ITC; […] ([…]) […] ([…]) […]; 25°C; VP-ITC; 20 mM Tris–HCl pH 8.5, 150 mM NaCl. (Isothermal titration calorimetry measures the heat released or taken up as one component is titrated into another.)

Here are results for 1 molecule from article PMC8167360.

The term Kd denotes the concentration at which binding is half-saturated. Low readings indicate a tighter complex, high ones a looser complex. Broadly, the stoichiometry N is the number of molecules, sites or subunits per partner or assembly.

B1: middle domain of human Paip1 (Paip1M), purified (domain or fragment)
chain: GSHMASMTGGQQMGRGSTLSEYVQDFLNHLTEQPGSFETEIEQFAETLNGCVTTDDALQELVELIYQQATSIPNFSYMGARLCNYLSHHLTISPQSGNFRQLLLQRCRTEYEVKDQAAKGDEVTRKRFHAFVLFLGELYLNLEIKGTNGQVTRADILQVGLRELLNALFSNPMDDNLICAVKLLKLTGSVLEDAWKEKGKMDMEEIIQRIENVVLDANCSRDVKQMLLKLVELRSS
With B1, the Kd is 15.5 µM, the dH is -6.78 kcal/mol and the stoichiometry N was 0.94.
